These results are taken from paper PMC2898303 (The Journal of Biological Chemistry, 2010).

Positions count from the first letter of the chain named. Names may count otherwise.

For assay [1], the target named is T1, His6-S-Tag-Gfd1 wild type (S. cerevisiae, UniProt Q04839 1-188).
T1 sequence (looked up): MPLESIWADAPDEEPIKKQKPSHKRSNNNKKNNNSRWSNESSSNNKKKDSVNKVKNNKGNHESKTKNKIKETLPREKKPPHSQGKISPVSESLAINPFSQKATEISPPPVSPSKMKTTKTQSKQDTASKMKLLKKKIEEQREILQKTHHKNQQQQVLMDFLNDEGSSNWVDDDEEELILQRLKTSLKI
In words: pull-down.

Assay [2] concerns the target T2, Nab2-N (residues 1–105 of Nab2), untagged (S. cerevisiae, UniProt P32505 1-105).
T2 sequence (looked up): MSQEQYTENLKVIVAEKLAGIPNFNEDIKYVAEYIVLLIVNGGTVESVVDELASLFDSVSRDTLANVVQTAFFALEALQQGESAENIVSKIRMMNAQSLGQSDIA
Kind of assay: crystal structure.

B1: GST-Nab2-N-WT (residues 1–97) (domain or fragment, S. cerevisiae, UniProt P32505 1-97, looked up)
chain: MSQEQYTENLKVIVAEKLAGIPNFNEDIKYVAEYIVLLIVNGGTVESVVDELASLFDSVSRDTLANVVQTAFFALEALQQGESAENIVSKIRMMNAQ
In the case of B1, the binding result in assay [1] is listed as “binds”.

B2: GST-Nab2-N-F56D (residues 1–97) (domain or fragment, S. cerevisiae, UniProt P32505 1-97, looked up)
chain: B1 chain with F56D
As for B2, the binding result in assay [1] was “binds”.

B3: GST-Nab2-N-L55W (residues 1–97) (domain or fragment, S. cerevisiae, UniProt P32505 1-97, looked up)
chain: B1 chain with L55W
B3: in assay [1], the binding result is listed as “binds”.
Turning to SKQDTASKMKLLKKKIEEQREILQKTHHKN (peptide, UniProt Q04839 122-151, looked up) [Gfd1 122–151 (fragment of Gfd1 released from GST-TEV-Gfd1 122–151 by TEV protease)], the binding result in assay [2] was “binds”.
